Here are results for nine molecules from patent US11371056B2, “HPPD variants and methods of use” (BASF Agricultural Solutions Seed US LLC, priority 2017, dated 2022).

In the data set the test system is Pseudomonas fluorescens HPPD polypeptide (wild-type and mutants). Put plainly: Coupled HPPD activity assay: turnover and residual turnover in crude HPPD polypeptide extracts with and without Cmpd. 1. The conditions noted are these: for Residual turnover [%]: 100 μM Cmpd. 1, normalised to turnover without inhibitor; for Turnover: absence of Cmpd. 1; for Turnover / Residual turnover: changes in absorbance (OD) at 320 nm in the coupled assay, 30 min; for Residual turnover: presence of 100 μM Cmpd. 1. It is filed as biochemical. On the procedure:
For the generation of crude HPPD polypeptide extract in micro titer plates (MTP) for the determination of residual activity in inhibition assays, cells were grown in 40 or 150 μl LB medium containing 1% Glucose (Merck, Darmstadt, Germany) and 100 μg/ml ampicillin in a standard 96 well plate (Thermo Fisher Scientific, Waltham, USA) incubated for about 18 h in a humidity incubator at 37° C. 30 μl of this starter culture were added to 600 μl LB medium containing 100 μg/ml ampicillin and 150 mM Hepes (Merck, Darmstadt, Germany) as inoculum for the expression culture in 96 well plates (2 ml deep wells; HJ Bioanalytik, Erkelenz, Germany). The plates were sealed by an aluminium foil, and cells were incubated for 5 h at 37° C. on a plate shaker at 750 rpm. The expression was induced by addition of IPTG in a final concentration of 1 mM followed by further sealed incubation for about 18 h at 30° C. on a plate shaker at 750 rpm.
Cells were harvested by centrifugation at 4° C., 2500 g for 15 min discarding the supernatant. Cell pellets were stored at −80° C. and lysed in 250 μl 1× BugBuster® (Merck, Darmstadt, Germany) in 140 mM Tris (pH 7.8), with 1:25000 diluted BNase® (Qiagen, Hilden, Germany) by incubation of the resuspended cells for 30 min at 4° C. and 1000 rpm. Lysates were clarified by centrifugation for 15 min at 4° C., 2500 g, and 150 μl supernatant were transferred in standard 96 well plate (Thermo Fisher Scientific, Waltham, USA) for subsequent testing in quadruplets.
The activity of HPPD polypeptides was determined in absence or presence of HPPD inhibitors using the coupled HPPD activity assay (FIG. 1).
For the determination of the residual activity, the apparent kinetic constant (kapp) of the determined substrate conversion was measured as kinetic changes in absorbance (OD) at 320 nm in a coupled assay, in that homogentisate (HGA) formed by HPPD from HPP is directly converted into the well absorbing molecule maleylacetoacetate (MAA) by a second enzyme homogentisate dioxygenase (HGD), applied in excess uniformly in all assays (see FIG. 1). The measurements were performed in 384 micro titer plates (Greiner Bio-One GmbH, Frickenhausen, Germany) by plate readers (Tecan infinite M1000 or M1000PRO, Tecan, Männedorf, Switzerland). The kcat/kM ratio of an enzymatic activity is proportional to the apparent kinetic constant kapp and is proportional to kcat/kM*[E] ([E]=enzyme concentration). […] As both kapp measurements in the presence and absence of inhibitor were performed by use of the identical enzyme sample, crude or purified, and thereby at the same enzyme concentration, the enzyme concentration eliminates from the calculation of residual activity and the ratio of both kapp directly indicates the change of kM due to the inhibition.
The assay solution used for determination of residual activities in raw HPPD polypeptide samples was composed by 200 mM sodium phosphate (Merck, Darmstadt, Germany, pH 7.0), 5 mM MgCl2 (Merck, Darmstadt, Germany), 20 mM ascorbate (Sigma-Aldrich, St. Louis, USA), 1 mM DTT (Sigma-Aldrich, St. Louis, USA), 0.1% Pluronic F-68 (Sigma-Aldrich, St. Louis, USA), 40 μM FeSO4 (Sigma-Aldrich, St. […] Louis, USA) and equilibrated for 20 min on ice.

B1: SEQ ID NO:11 (protein)
chain: MADLYENPMGLMGFEFIEFASPTPGTLEPIFEIMGFTKVATHRSKNVHLYRQGEINLILNNEPNSIASYFAAEHGPSVCGMAFRVKDSQKAYNRALELGAQPIHIDTGPMELNLPAIKGIGGAPLYLIDRFGEGSSIYDIDFVYLEGVERNPVGAGLKVIDHLTHNVYRGRMVYWANFYEKLFNFREARYFDIKGEYTGLTSKAMSAPDGMIRIPLNEESSKGAGQIEEFLMQFNGEGIQHVAFLTDDLVKTWDALKKIGMRFMTAPGDEYYEMLEGRLPDHGEPVDQLQARGILLDGSSVEGDKRLLLQIFSEQLMGPVFFEFIQRKGDDGFGPDSFKVLFEQIERDQVRRGVLTAD
modifications: mutant HPPD polypeptide
For the molecule B1, the “Residual turnover [%]” value was determined as 46%, the Turnover is recorded as 0.183 and the Residual turnover is listed as 0.085.

B2: SEQ ID NO:13 (protein)
chain: MADLYENPMGLMGFEFIEFASPTPGTLEPIFEIMGFTKVATHRSKNVHLYRQGEINLILNNEPNSIASYFAAEHGPSVCGMAFRVKDSQKAYNRALELGAQPIHIDTGPMELNLPAIKGIGGAPLYLIDRFGEGSSIYDIDFVYLEGVERNPVGAGLKVIDHLTHNVYRGRMVYWANFYEKLFNFREARYFDIKGEYTGLTSKAMSAPDGMIRIPLNEESSKGAGQIEEFLMQFNGEGIQHVAFLTDDLVKTWDALKKIGMRFMTAPGDEYYEMLEGRLPDHGEPVDQLQARGILLDGSSVEGDKRLLLQIFSETLMGPVFFEFIQRKGDDGFGPDSFKVLFEQIERDQVRRGVLTAD
modifications: mutant HPPD polypeptide
As to B2, the “Residual turnover [%]” value is recorded as 38%, the Turnover stood at 0.168 and the Residual turnover is recorded as 0.064.

B3: SEQ ID NO:12 (protein)
chain: MADLYENPMGLMGFEFIEFASPTPGTLEPIFEIMGFTKVATHRSKNVHLYRQGEINLILNNEPNSIASYFAAEHGPSVCGMAFRVKDSQKAYNRALELGAQPIHIDTGPMELNLPAIKGIGGAPLYLIDRFGEGSSIYDIDFVYLEGVERNPVGAGLKVIDHLTHNVYRGRMVYWANFYEKLFNFREARYFDIKGEYTGLTSKAMSAPDGMIRIPLNEESSKGAGQIEEFLMQFNGEGIQHVAFLTDDLVKTWDALKKIGMRFMTAPGDEYYEMLEGRLPDHGEPVDQLQARGILLDGSSVEGDKRLLLQIFSERLMGPVFFEFIQRKGDDGFGPDSFKVLFEQIERDQVRRGVLTAD
modifications: mutant HPPD polypeptide
Turning to B3, the “Residual turnover [%]” value amounted to 40%, the Turnover is listed as 0.189 and the Residual turnover was determined as 0.076.

B4: SEQ ID NO:15 (protein)
chain: MADLYENPMGLMGFEFIEFASPTPGTLEPIFEIMGFTKVATHRSKNVHLYRQGEINLILNNEPNSIASYFAAEHGPSVCGMAFRVKDSQKAYNRALELGAQPIHIDTGPMELNLPAIKGIGGAPLYLIDRFGEGSSIYDIDFVYLEGVERNPVGAGLKVIDHLTHNVYRGRMVYWANFYEKLFNFREARYFDIKGEYTGLTSKAMSAPDGMIRIPLNEESSKGAGQIEEFLMQFNGEGIQHVAFLTDDLVKTWDALKKIGMRFMTAPGDEYYEMLEGRLPDHGEPVDQLQARGILLDGSSVEGDKRLLLQIFSEQLMGPVFFEFIQRKGDDGFGPDSFKVLFESMERDQVRRGVLTAD
modifications: mutant HPPD polypeptide
B4: the “Residual turnover [%]” value was determined as 39%, the Turnover turned out to be 0.161 and the Residual turnover is recorded as 0.062.

B5: SEQ ID NO:19 (protein)
chain: MADLYENPMGLMGFEFIEFASPTPGTLEPIFEIMGFTKVATHRSKNVHLYRQGEINLILNNEPNSIASYFAAEHGPSVCGMAFRVKDSQKAYNRALELGAQPIHIDTGPMELNLPAIKGIGGAPLYLIDRFGEGSSIYDIDFVYLEGVERNPVGAGLKVIDHLTHNVYRGRMVYWANFYEKLFNFREARYFDIKGEYTGLTSKAMSAPDGMIRIPLNEESSKGAGQIEEFLMQFNGEGIQHVAFLTDDLVKTWDALKKIGMRFMTAPGDEYYEMLEGRLPDHGEPVDQLQARGILLDGSSVEGDKRLLLQIFSEQLMGPVFFEFIQRKGDDGFGPDSFKVLFEQMERDQVRRGVLTAD
modifications: mutant HPPD polypeptide
As to B5, the “Residual turnover [%]” value is 40%, the Turnover was determined as 0.218 and the Residual turnover is 0.087.

B6: SEQ ID NO:14 (protein)
chain: MADLYENPMGLMGFEFIEFASPTPGTLEPIFEIMGFTKVATHRSKNVHLYRQGEINLILNNEPNSIASYFAAEHGPSVCGMAFRVKDSQKAYNRALELGAQPIHIDTGPMELNLPAIKGIGGAPLYLIDRFGEGSSIYDIDFVYLEGVERNPVGAGLKVIDHLTHNVYRGRMVYWANFYEKLFNFREARYFDIKGEYTGLTSKAMSAPDGMIRIPLNEESSKGAGQIEEFLMQFNGEGIQHVAFLTDDLVKTWDALKKIGMRFMTAPGDEYYEMLEGRLPDHGEPVDQLQARGILLDGSSVEGDKRLLLQIFSEKLMGPVFFEFIQRKGDDGFGPDSFKVLFESMERDQVRRGVLTAD
modifications: mutant HPPD polypeptide
With B6, the “Residual turnover [%]” value was 40%, the Turnover is on record as 0.18 and the Residual turnover worked out at 0.072.

B7: SEQ ID NO:17 (protein)
chain: MADLYENPMGLMGFEFIEFASPTPGTLEPIFEIMGFTKVATHRSKNVHLYRQGEINLILNNEPNSIASYFAAEHGPSVCGMAFRVKDSQKAYNRALELGAQPIHIDTGPMELNLPAIKGIGGAPLYLIDRFGEGSSIYDIDFVYLEGVERNPVGAGLKVIDHLTHNVYRGRMVYWANFYEKLFNFREARYFDIKGEYTGLTSKAMSAPDGMIRIPLNEESSKGAGQIEEFLMQFNGEGIQHVAFLTDDLVKTWDALKKIGMRFMTAPGDEYYEMLEGRLPDHGEPVDQLQARGILLDGSSVEGDKRLLLQIFSETLMGPVFFEFIQRKGDDGFGPDSFKVLFESMERDQVRRGVLTAD
modifications: mutant HPPD polypeptide
Consider B7, for which the “Residual turnover [%]” value was determined as 41%, the Turnover was found to be 0.184 and the Residual turnover is 0.075.

B8: SEQ ID NO:18 (protein)
chain: MADLYENPMGLMGFEFIEFASPTPGTLEPIFEIMGFTKVATHRSKNVHLYRQGEINLILNNEPNSIASYFAAEHGPSVCGMAFRVKDSQKAYNRALELGAQPIHIDTGPMELNLPAIKGIGGAPLYLIDRFGEGSSIYDIDFVYLEGVERNPVGAGLKVIDHLTHNVYRGRMVYWANFYEKLFNFREARYFDIKGEYTGLTSKAMSAPDGMIRIPLNEESSKGAGQIEEFLMQFNGEGIQHVAFLTDDLVKTWDALKKIGMRFMTAPGDEYYEMLEGRLPDHGEPVDQLQARGILLDGSSVEGDKRLLLQIFSEKLMGPVFFEFIQRKGDDGFGPDSFKVLFEQMERDQVRRGVLTAD
modifications: mutant HPPD polypeptide
With B8, the “Residual turnover [%]” value is reported as 41%, the Turnover is 0.221 and the Residual turnover turned out to be 0.091.

B9: SEQ ID NO:16 (protein)
chain: MADLYENPMGLMGFEFIEFASPTPGTLEPIFEIMGFTKVATHRSKNVHLYRQGEINLILNNEPNSIASYFAAEHGPSVCGMAFRVKDSQKAYNRALELGAQPIHIDTGPMELNLPAIKGIGGAPLYLIDRFGEGSSIYDIDFVYLEGVERNPVGAGLKVIDHLTHNVYRGRMVYWANFYEKLFNFREARYFDIKGEYTGLTSKAMSAPDGMIRIPLNEESSKGAGQIEEFLMQFNGEGIQHVAFLTDDLVKTWDALKKIGMRFMTAPGDEYYEMLEGRLPDHGEPVDQLQARGILLDGSSVEGDKRLLLQIFSERLMGPVFFEFIQRKGDDGFGPDSFKVLFESMERDQVRRGVLTAD
modifications: mutant HPPD polypeptide
Consider B9, for which the “Residual turnover [%]” value amounted to 46%, the Turnover is given as 0.181 and the Residual turnover came to 0.083.
